The values that follow are results of earlier work, collected in paper PMC4659487.

The series addresses MurC (Escherichia coli) (UniProt P17952).

In general, Kd refers to a measure of binding affinity in units of concentration. Regarding MurC (from UniProt P17952), the Kd was 1000 nM.
